Where two headings read alike, the source gives them in different places. Primed or numbered codes have the meaning given here. Where no end group is shown, it is not given here. [ ]: non-standard residue; d: D form. pT = C[C@@H](OP(=O)(O)O)[C@H](N)C(=O)O; pS = N[C@@H](COP(=O)(O)O)C(=O)O; Biotin′ = not defined here
Legend:
p…-Biotin = target: T1, p…-Biotin; experiment: Octet (BLI), fixed reagent concentration
T1 sequence (peptide, phosphothreonine at 1; C-terminal Biotin): TAKLDEESILKQ

…-Biotin = target: T2, …-Biotin; experiment: Octet (BLI), fixed reagent concentration
T2 sequence (peptide, C-terminal Biotin): SAKLDEESILKQ

SAKLDEESILKQ-Biotin = experiment: Octet binding assay of PTM-specific affinity reagent candidates, SA control peptide; set-up: unit not given here; conditions: fixed concentration of reagent
Text: (§1) This Example characterizes an exemplary phosphorylated threonine recognizer for use in methods of the disclosure.

p[…]-Biotin [1] = experiment: Octet binding assay of PTM-specific affinity reagent candidates, pTQR peptide; conditions: fixed concentration of reagent
Description: This Example characterizes an exemplary phosphorylated threonine recognizer for use in methods of the disclosure. Octet binding assays at a fixed concentration of PTM-specific affinity reagent candidates were evaluated for binding with phospho-threonine, phospho-serine containing peptides (p[…]-Biotin; p[…]-Biotin; p[…]-Biotin), and control peptides without modifications ([…]-Biotin; […]-Biotin).

p[…]-Biotin [2] = experiment: Octet binding assay of PTM-specific affinity reagent candidates, pTA peptide; conditions: fixed concentration of reagent
Text: as §1

TAKLDEESILKQ-Biotin = target: T3, TAKLDEESILKQ-Biotin; experiment: Octet (BLI), fixed reagent concentration;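 also: octet binding of candidate PTM-specific affinity reagents, each at one fixed concentration, to biotinylated phospho-Thr or phospho-Ser peptides, with unmodified biotinylated peptides serving as controls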
T3 peptide: TAKLDEESILKQ-{Biotin′}
Description: (§2) Octet binding assays at a fixed concentration of PTM-specific affinity reagent candidates were evaluated for binding with phospho-threonine, phospho-serine containing peptides (p[sequence]-Biotin; p[sequence]-Biotin; p[sequence]-Biotin), and control peptides without modifications ([sequence]-Biotin; [sequence]-Biotin).

pSAKLDEESILKQ-Biotin = target: T4, pSAKLDEESILKQ-Biotin; experiment: Octet (BLI), fixed reagent concentration;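 also: octet binding of candidate PTM-specific affinity reagents, each at one fixed concentration, to biotinylated phospho-Thr or phospho-Ser peptides, with unmodified biotinylated peptides serving as controls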
T4 peptide: [pS]AKLDEESILKQ-{Biotin′}
Description: as §2

pTAKLDEESILKQ-Biotin = target: T5, pTAKLDEESILKQ-Biotin; experiment: Octet (BLI), fixed reagent concentration;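 also: octet binding of candidate PTM-specific affinity reagents, each at one fixed concentration, to biotinylated phospho-Thr or phospho-Ser peptides, with unmodified biotinylated peptides serving as controls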
T5 peptide: [pT]AKLDEESILKQ-{Biotin′}
Description: as §2

| Molecule | Octet binding assay response (…-Biotin) | Octet binding assay response, pTQR (p[…]-Biotin [1]) | Octet binding assay response (p…-Biotin) | Octet binding assay response (pSAKLDEESILKQ-Biotin) | also measured |
| --- | --- | --- | --- | --- | --- |
| PM16 (Human/PLK1) (from UniProt P53350 326-603) | 0.5 | – | – | – | Octet binding assay response (p…-Biotin; pTA phosphothreonine peptide): 1.7; Octet binding assay response (p…-Biotin; pTQR phosphothreonine peptide): 2.1 |
| PM03: Human/14-3-3 protein eta, SEQ ID NO: 3 | – | 0.4 | – | – | Octet binding assay response, SA (SAKLDEESILKQ-Biotin; SA = […]-Biotin (control)): 0.3 |
| PM15: Human/Pin1, SEQ ID NO: 15 | – | 7.4 | – | – | Octet binding assay response, SA (SAKLDEESILKQ-Biotin; SA = […]-Biotin (control)): 0.5 |
| PM09 (Human/BRCA1 Tandem domain) (from UniProt P38398 1646-1859) | 0.1 | – | – | – | – |
| PM15 (Human/Pin1) (from UniProt Q13526 1-163) | 0.5 | – | – | – | – |
| PM02: Human/14-3-3 protein theta, SEQ ID NO: 2 | – | 0.5 | – | – | – |
| PM16: Human/PLK1, SEQ ID NO: 16 | – | 2.1 | – | – | Octet binding assay response, pTA (p[…]-Biotin [2]): 1.7 |
| PM08 (Human/DLG4) (from UniProt P78352 426-724) | 0.3 | – | 1.2 | – | – |
| PM08: Human/DLG4, SEQ ID NO: 8 | – | 1.2 | – | – | – |
| PM19 (Human/RBM15) (other) MAPVASASPKLCLAWQGMLLLKNSNFPSNMHLLQGDLQVASSLLVEGSTGGKVAQLKITQRLRLDQPKLDEVTRRIKVAGPNGYAILLAVPGSSDSRSSSSSAASDTATSTQRPLRNLVSYLKQKQAAGVISLPVGGNKDKENTGVLHAFPPCEFSQQFLDSPAKALAKSEEDYLVMIIVRGFGFQI | 0.1 | 1.0 | 1 | 0.1 | Octet binding assay response (TAKLDEESILKQ-Biotin): 0.2; Octet binding assay response (pTAKLDEESILKQ-Biotin): 0.3 |
| PM10 (Human/MCPH1) (other) MSGRGKKPTRTLVMTSMPSEKQNVVIQVVDKLKGFSIAPDVCETTTHVLSGKPLRTLNVLLGIARGCWVLSYDWVLWSLELGHWISEEPFELSHHFPAAPLCRSECHLSAGPYRGTLFADQPAMFVSPASSPPVAKLCELVHLCGGRVSQVPRQASIVIGPYSGKKKATVKYLSEKWVLDSITQHKVCAPENYLLSQ | 0.2 | 1.0 | 1 | 0.3 | Octet binding assay response, SA (SAKLDEESILKQ-Biotin; SA = […]-Biotin (control)): 0.2; Octet binding assay response (TAKLDEESILKQ-Biotin): 0.3; Octet binding assay response (pTAKLDEESILKQ-Biotin): 0.3 |
| PM21 (Human/PHF3) (other) MTFLARLNFIWKGFINMPSVAKFVTKAYPVSGSPEYLTEDLPDSIQVGGRISPQTVWDYVEKIKASGTKEICVVRFTPVTEEDQISYTLLFAYFSSRKRYGVAANNMKQVKDMYLIPLGATDKIPHPLVPFDGPGLELHRPNLLLGLIIRQKL | 0.1 | 0.5 | 0.5 | 0.2 | Octet binding assay response, SA (SAKLDEESILKQ-Biotin; SA = […]-Biotin (control)): 0.1; Octet binding assay response (TAKLDEESILKQ-Biotin): 0.2; Octet binding assay response (pTAKLDEESILKQ-Biotin): 0.3 |
| PM11 (Human/TOPBP1) (other) MVYNMVMSDVTISCTSLEKEKREEVHKYVQMMGGRVYRDLNVSVTHLIAGEVGSKKYLVAANLKKPILLPSWIKTLWEKSQEKKITRYTD | 0.2 | – | – | 0.2 | – |
| PM17 (Human/DIDO1) (other) MTLFLSRLSTIWKGFINMQSVAKFVTKAYPVSGCFDYLSEDLPDTIHIGGRIAPKTVWDYVGKLKSSVSKELCLIRFHPATEEEEVAYISLYSYFSSRGRFGVVANNNRHVKDLYLIPLSAQDPVPSKLLPFEGPGLESPRPNIILGLVICQKIKRPANS | 0.2 | – | – | 0.2 | – |
| PM01 (Human/14-3-3 protein epsilon) (other) MDDREDLVYQAKLAEQAERYDEMVESMKKVAGMDVELTVEERNLLSVAYKNVIGARRASWRIISSIEQKEENKGGEDKLKMIREYRQMVETELKLICCDILDVLDKHLIPAANTGESKVFYYKMKGDYHRYLAEFATGNDRKEAAENSLVAYKAASDIAMTELPPTHPIRLGLALNFSVFYYEILNSPDRACRLAKAAFDDAIAELDTLSEESYKDSTLIMQLLRDNLTLWTSDMQGDGEEQNKEALQDVEDENQ | 0.2 | – | – | 0.2 | – |
| PM23 (Human/Scp1) (other) MAFEELRVQAENARLDMHFKLKEDHEKIQHLQEEYKKEVNDKENQVSLLLIQRTEKENKMKDLTFLLEESRDKVNQLEDKTKLQDENVKELNKKKDHLTSELEDTKMSLQRSMNTQKALEEDLQIATKTIYQLTEEKEAQMEEFNKAKTDHSFMVTELKATTCTLEELLRTEQQRLVKNED | 0.1 | 0.3 | 0.3 | 0.1 | Octet binding assay response (TAKLDEESILKQ-Biotin): 0.2; Octet binding assay response (pTAKLDEESILKQ-Biotin): 0.2 |
| PM22 (Schizosaccharomyces pombe/FCP1) (other) MKQKVLKGCRLLFSGVIPLGVDVLSSDIAKWAMSFGAEVVLDFSVPPTHLIAAKIRTEKVKKAVSMGNIKVVKLNWLTESLSQWKRLPESDYLL | 0.2 | – | – | 0.1 | – |
| PM22: Schizosaccharomyces pombe/FCP1, SEQ ID NO: 22 (protein) MKQKVLKGCRLLFSGVIPLGVDVLSSDIAKWAMSFGAEVVLDFSVPPTHLIAAKIRTEKVKKAVSMGNIKVVKLNWLTESLSQWKRLPESDYLL | – | – | – | – | Octet binding assay response, SA (SAKLDEESILKQ-Biotin; SA = SAKLDEESILKQ-Biotin (control)): 0.2 |
| PM04 (Human/14-3-3 protein gamma) (other) MVDREQLVQKARLAEQAERYDDMAAAMKNVTELNEPLSNEERNLLSVAYKNVVGARRSSWRVISSIEQKTSADGNEKKIEMVRAYREKIEKELEAVCQDVLSLLDNYLIKNCSETQYESKVFYLKMKGDYYRYLAEVATGEKRATVVESSEKAYSEAHEISKEHMQPTHPIRLGLALNYSVFYYEIQNAPEQACHLAKTAFDDAIAELDTLNEDSYKDSTLIMQLLRDNLTLWTSDQQDDDGGEGNN | 0.1 | – | – | 0.1 | – |
| PM20 (Human/RB15B) (other) MQLGWNGLLVLKNSCFPTSMHILEGDQGVISSLLKDHTSGSKLTQLKIAQRLRLDQPKLDEVTRRIKQGSPNGYAVLLATQATPSGLGTEGMPTVEPGLQRRLLRNLVSYLKQKQAAGVISLPVGGSKGRDGTGMLYAFPPCDFSQQYLQSALRTLGKLEEEHMVIVIVRDTA | 0.2 | 0.5 | 0.5 | 0.2 | Octet binding assay response (TAKLDEESILKQ-Biotin): 0.2; Octet binding assay response (pTAKLDEESILKQ-Biotin): 0.3 |
